Measurements as given in ChEMBL document CHEMBL1142227, “Structural basis for the high all-trans-retinaldehyde reductase activity of the tumor marker AKR1B10” (Proc Natl Acad Sci U S A, 2007).

Legend:
[1] = test system: CC1=C(/C=C/C(C)=C/C=C/C(C)=C/C=O)C(C)(C)CCC1; assay: (§1) Activity of human AKR1B10 K125L mutant by BSA/HPLC method
[2] = test system: CC1=C(/C=C/C(C)=C\C=C\C(C)=C\C=O)C(C)(C)CCC1; assay: as §1
O=CC(O)CO [3] = assay: as §1
[4] = test system: CC1=C(/C=C/C(C)=C/C=C/C(C)=C/C=O)C(C)(C)CCC1; assay: (§2) Ratio of Kcat to Km for human AKR1B10 K125L mutant
[5] = test system: CC1=C(/C=C/C(C)=C\C=C\C(C)=C\C=O)C(C)(C)CCC1; assay: as §2
O=CC(O)CO [6] = assay: as §2
[7] = test system: CC1=C(/C=C/C(C)=C/C=C/C(C)=C/C=O)C(C)(C)CCC1; assay: (§3) Activity of human AKR1B10 K125L mutant by Tween 80 / spectrophotometer method
[8] = test system: CC1=C(/C=C/C(C)=C/C=C/C(C)=C/C=O)C(C)(C)C[C@@H](O)C1; assay: as §3
[9] = test system: CC1=C(/C=C/C(C)=C/C=C/C(C)=C/C=O)C(C)(C)CCC1; assay: (§4) Activity of human AKR1B10 V301L mutant by BSA/HPLC method
[10] = test system: CC1=C(/C=C/C(C)=C\C=C\C(C)=C\C=O)C(C)(C)CCC1; assay: as §4
O=CC(O)CO [11] = assay: as §4
[12] = test system: CC1=C(/C=C/C(C)=C/C=C/C(C)=C/C=O)C(C)(C)CCC1; assay: (§5) Ratio of Kcat to Km for human AKR1B10 V301L mutant
[13] = test system: CC1=C(/C=C/C(C)=C\C=C\C(C)=C\C=O)C(C)(C)CCC1; assay: as §5
O=CC(O)CO [14] = assay: as §5
[15] = test system: CC1=C(/C=C/C(C)=C/C=C/C(C)=C/C=O)C(C)(C)CCC1; assay: (§6) Activity of human AKR1B1 by BSA/HPLC method
[16] = test system: CC1=C(/C=C/C(C)=C\C=C\C(C)=C\C=O)C(C)(C)CCC1; assay: as §6
O=CC(O)CO [17] = assay: as §6
[18] = test system: CC1=C(/C=C/C(C)=C/C=C/C(C)=C/C=O)C(C)(C)CCC1; assay: (§7) Ratio of Kcat to Km for human AKR1B1
[19] = test system: CC1=C(/C=C/C(C)=C\C=C\C(C)=C\C=O)C(C)(C)CCC1; assay: as §7
O=CC(O)CO [20] = assay: as §7
[21] = test system: CC1=C(/C=C/C(C)=C/C=C/C(C)=C/C=O)C(C)(C)CCC1; assay: (§8) Activity of human AKR1B1 by Tween 80 / spectrophotometer method
[22] = test system: CC1=C(/C=C/C(C)=C/C=C/C(C)=C/C=O)C(C)(C)C[C@@H](O)C1; assay: as §8
[23] = test system: CC1=C(/C=C/C(C)=C/C=C/C(C)=C/C=O)C(C)(C)CCC1; assay: (§9) Activity of human wild type AKR1B10 by BSA/HPLC method
[24] = test system: CC1=C(/C=C/C(C)=C\C=C\C(C)=C\C=O)C(C)(C)CCC1; assay: as §9
O=CC(O)CO [25] = assay: as §9
[26] = test system: CC1=C(/C=C/C(C)=C/C=C/C(C)=C/C=O)C(C)(C)CCC1; assay: (§10) Ratio of Kcat to Km for human wild type AKR1B10
[27] = test system: CC1=C(/C=C/C(C)=C\C=C\C(C)=C\C=O)C(C)(C)CCC1; assay: as §10
O=CC(O)CO [28] = assay: as §10
[29] = test system: CC1=C(/C=C/C(C)=C/C=C/C(C)=C/C=O)C(C)(C)CCC1; assay: (§11) Activity of human wild type AKR1B10 by Tween 80 / spectrophotometer method
[30] = test system: CC1=C(/C=C/C(C)=C/C=C/C(C)=C/C=O)C(C)(C)C[C@@H](O)C1; assay: as §11
[31] = biological target: Aldo-keto reductase family 1 member B10 (Homo sapiens) (UniProt O60218); assay: Inhibition of retinaldehyde reductase activity of human AKR1B10 expressed in COS7 cells at 1 uM relative to control; format: cell-based; parameters: scale not given: the % may be the effect or the level left; settings: COS-7
Sequence of Aldo-keto reductase family 1 member B10 (Homo sapiens) (O60218 whole entry, looked up): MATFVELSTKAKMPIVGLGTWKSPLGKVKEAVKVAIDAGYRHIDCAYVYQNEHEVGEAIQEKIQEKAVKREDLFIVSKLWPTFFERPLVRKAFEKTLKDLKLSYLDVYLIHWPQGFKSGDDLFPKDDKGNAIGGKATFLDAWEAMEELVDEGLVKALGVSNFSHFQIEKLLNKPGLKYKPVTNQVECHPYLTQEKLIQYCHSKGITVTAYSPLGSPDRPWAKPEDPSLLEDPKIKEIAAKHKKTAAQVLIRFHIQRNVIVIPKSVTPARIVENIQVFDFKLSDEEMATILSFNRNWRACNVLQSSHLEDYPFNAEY

[32] = test system: CC1=C(/C=C/C(C)=C/C=C/C(C)=C/C=O)C(C)(C)CCC1; assay: (§12) Activity of human AKR1B10 K125L/V301L mutant by BSA/HPLC method
O=CC(O)CO [33] = assay: as §12
[34] = test system: CC1=C(/C=C/C(C)=C/C=C/C(C)=C/C=O)C(C)(C)CCC1; assay: (§13) Ratio of Kcat to Km for human AKR1B10 K125L/V301L mutant
O=CC(O)CO [35] = assay: as §13

Sequence of Aldo-keto reductase family 1 member B10 (Homo sapiens), O60218 V301L (O60218 whole entry V301L): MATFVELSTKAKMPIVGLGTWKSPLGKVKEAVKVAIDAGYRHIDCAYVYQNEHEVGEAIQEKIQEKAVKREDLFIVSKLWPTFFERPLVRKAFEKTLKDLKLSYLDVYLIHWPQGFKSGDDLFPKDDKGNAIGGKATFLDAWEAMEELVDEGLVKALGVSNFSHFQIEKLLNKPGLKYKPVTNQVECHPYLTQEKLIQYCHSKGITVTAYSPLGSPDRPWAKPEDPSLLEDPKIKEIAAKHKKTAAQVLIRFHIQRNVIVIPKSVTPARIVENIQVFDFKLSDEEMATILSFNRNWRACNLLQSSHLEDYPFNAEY
Sequence of Aldo-keto reductase family 1 member B10 (Homo sapiens), O60218 (O60218 whole entry): as the sequence (O60218 whole entry, looked up) above
Sequence of Aldo-keto reductase family 1 member B10 (Homo sapiens), O60218 K125L,V301L (O60218 whole entry K125L/V301L): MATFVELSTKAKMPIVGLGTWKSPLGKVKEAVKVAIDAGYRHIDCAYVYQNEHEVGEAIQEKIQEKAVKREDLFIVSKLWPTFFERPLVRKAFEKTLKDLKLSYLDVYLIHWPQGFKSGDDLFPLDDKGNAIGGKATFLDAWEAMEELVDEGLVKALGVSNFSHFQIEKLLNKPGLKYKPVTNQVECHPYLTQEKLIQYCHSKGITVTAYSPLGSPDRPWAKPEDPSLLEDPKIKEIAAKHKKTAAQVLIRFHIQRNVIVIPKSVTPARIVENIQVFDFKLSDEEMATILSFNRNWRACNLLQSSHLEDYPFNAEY
Sequence of Aldo-keto reductase family 1 member B10 (Homo sapiens), O60218 K125L (O60218 whole entry K125L): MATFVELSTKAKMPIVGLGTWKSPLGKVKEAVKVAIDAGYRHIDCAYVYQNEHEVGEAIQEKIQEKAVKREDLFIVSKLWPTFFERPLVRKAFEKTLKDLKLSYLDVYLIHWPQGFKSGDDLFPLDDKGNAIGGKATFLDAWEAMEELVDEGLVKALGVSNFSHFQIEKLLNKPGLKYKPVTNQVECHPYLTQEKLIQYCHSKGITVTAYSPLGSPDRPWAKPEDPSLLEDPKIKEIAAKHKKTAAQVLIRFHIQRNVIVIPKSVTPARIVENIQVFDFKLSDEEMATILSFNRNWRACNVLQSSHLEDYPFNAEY

Q: Which results are given for “Aldo-keto reductase family 1 member B10 (Homo sapiens), O60218 K125L”?
A: Km [1]: 0.15 µM; kcat [1]: 0.0333 s⁻¹; Km [2]: 0.7 µM; kcat [2]: 0.015 s⁻¹; Km (O=CC(O)CO [3]): 5200 µM; kcat (O=CC(O)CO [3]): 0.593 s⁻¹; kcat/Km [4]: 218000 M⁻¹ s⁻¹; kcat/Km [5]: 21700 M⁻¹ s⁻¹; kcat/Km (O=CC(O)CO [6]): 117 M⁻¹ s⁻¹; kcat [7]: 0.0733 s⁻¹; kcat [8]: 0.308 s⁻¹

Q: Which results are given for “Aldo-keto reductase family 1 member B10 (Homo sapiens), O60218 V301L”?
A: Km [9]: 0.6 µM; kcat [9]: 0.128 s⁻¹; Km [10]: 0.3 µM; kcat [10]: 0.01 s⁻¹; Km (O=CC(O)CO [11]): 6000 µM; kcat (O=CC(O)CO [11]): 0.683 s⁻¹; kcat/Km [12]: 212000 M⁻¹ s⁻¹; kcat/Km [13]: 30000 M⁻¹ s⁻¹; kcat/Km (O=CC(O)CO [14]): 117 M⁻¹ s⁻¹

Q: Which results are given for “Aldo-keto reductase family 1 member B1 (Homo sapiens) (from UniProt P15121)”?
A: Km [15]: 1.1 µM; kcat [15]: 0.00583 s⁻¹; Km [16]: 0.4 µM; kcat [16]: 0.0117 s⁻¹; Km (O=CC(O)CO [17]): 50 µM; kcat (O=CC(O)CO [17]): 0.517 s⁻¹; kcat/Km [18]: 5330 M⁻¹ s⁻¹; kcat/Km [19]: 25000 M⁻¹ s⁻¹; kcat/Km (O=CC(O)CO [20]): 11000 M⁻¹ s⁻¹; kcat [21]: 0.00617 s⁻¹; kcat [22]: 0.0967 s⁻¹

Q: Which results are given for “Aldo-keto reductase family 1 member B10 (Homo sapiens), O60218”?
A: Km [23]: 0.6 µM; kcat [23]: 0.45 s⁻¹; Km [24]: 0.7 µM; kcat [24]: 0.015 s⁻¹; Km (O=CC(O)CO [25]): 6000 µM; kcat (O=CC(O)CO [25]): 0.583 s⁻¹; kcat/Km [26]: 750000 M⁻¹ s⁻¹; kcat/Km [27]: 21700 M⁻¹ s⁻¹; kcat/Km (O=CC(O)CO [28]): 100 M⁻¹ s⁻¹; kcat [29]: 0.297 s⁻¹; kcat [30]: 0.288 s⁻¹

Q: With `COc1ccc2c(C(=S)N(C)CC(=O)O)cccc2c1C(F)(F)F` as the compound, how does the Activity [31] read?
A: Its Activity is 50%.

Q: Which results are given for “Aldo-keto reductase family 1 member B10 (Homo sapiens), O60218 K125L,V301L”?
A: Km [32]: 1 µM; kcat [32]: 0.0583 s⁻¹; Km (O=CC(O)CO [33]): 7300 µM; kcat (O=CC(O)CO [33]): 0.59 s⁻¹; kcat/Km [34]: 58300 M⁻¹ s⁻¹; kcat/Km (O=CC(O)CO [35]): 81.7 M⁻¹ s⁻¹
